Source: US20140011732A1

Molecular target: human serum albumin (HSA) (human) (UniProt P02768)
Assay: competition SPA on biotinylated HSA, 125I acylated GLP-1 tracer

N-epsilon37-[2-(2-[2-(2-[2-(2-((R)-3-[1-(17-Carboxyheptadecanoyl)piperidin-4-ylcarbonylamino]3-carboxypropionylamino)ethoxy)ethoxy]acetylamino)ethoxy]ethoxy)acetyl][DesaminoHis7, Glu22 Arg26, Arg 34,, sequence (peptide): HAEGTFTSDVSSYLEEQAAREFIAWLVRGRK

“N-epsilon37-[2-(2-[2-(2-[2-(2-((R)-3-[1-(17-Carboxyheptadecanoyl)piperidin-4-ylcarbonylamino]3-carboxypropionylamino)ethoxy)ethoxy]acetylamino)ethoxy]ethoxy)acetyl][DesaminoHis7, Glu22 Arg26, Arg 34, Phe(m-CF3)28]GLP-1-(7-37)amide (peptide)” was tested, and the EC50 was 800 nM.
